Data taken from the domain aggregation screens of Martell et al. (2025).

Assay: soluble fraction after stress (log2 fold change); higher = more stays soluble; pooled small domains, quantitative proteomics
Settings: stress: pH 4
How it was run: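 Small protein domains from pooled custom libraries were exposed to pH 4, then quantified with high-throughput quantitative proteomics. The fold change in how much of each domain remains soluble is read as aggregation propensity. It is given as log2, with higher values meaning more stayed soluble.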

| Sequence | soluble fraction (log2) |
| --- | --- |
| HMFLTPLEETRLAIEEVVIAKNIAIDLFPRESAIRKQQHELIYHYHLKGLTVGTEKNKRLRIFPRGY | -0.52 |
| HMFLTSDEGKIMQLLEDKQRITRKDAQELLGVSQSTAGRILKTLVDNGQITQRGGGRTTRYELIK | 0.22 |
| HMFMKNTEVALAIKGKFSNQTTITSKELVLFLSDLFPELSNKTIPWKINQLKAENLIYQTGRGIYTFN | -0.809 |
| HMFMMVAGHLQIKNEKYYMVLELRTEQGERKTKWIGTGLAVKGNKRRAEAMLEETRTKYLSPV | -0.177 |
| HMFMPGTIIKQFRELRNYSQDYVSRKMGISQNAYSKIENNITQLTVTHVKQLSSILDVPIVELLR | -0.366 |
| HMFMSDDDIRILVKEWLQSQNRKSYQLAEEIGIRPQTFYAQMSVRKISANTKKALSRIIPGL | 0.0503 |
| HMFMSKTAMVAIISEADKYGLFNIPEGLSVEKTADEIFEGHIEVDFDKLKNELDFVYKNEALEKQFQEN | -1 |
| HMFNPEQDPKQLTGRERAVADLIGLGANNAEIAIRLSMSERTVKAHLTSIFQQLNVRDRVQLALVMNQL | -0.541 |
| HMFPASQPVPTDLNQIVRAGLEVFSGRLEGIDVRVSLEPELPRVNVDPEHFKRIVVNLVDNAAEAMQNS | -0.0189 |
| HMFPATAPQLKAVHAILGKQGISDELDKLARVNEWLVGLNKEPVAAISELDKHTTSGLIDHLQGELNE | -0.131 |
| HMFPDLSPEQQRIVDVLTKSNDLQLNQLSVKTGIPIGDITSILFQMEMMGVVKPMAGGNYHLL | -0.0768 |
| HMFPDLTEDEQLIVDVLQRTGDLQINSLIVEANIPVNKMSEILFELEMKGVIRTLAGGVYQLL | -1.84 |
| HMFPDRLRELRKGRNITLETLAEEMNKHLEPGQKPNTAAQIGNWERGDRSPSYIEVRKLADFFNVSMDFL | -0.512 |
| HMFPELNAEETQVVQLLQKQTEGMQVNSLVVESNIPITRMSGILFELELKGIIRNYAGGVYKL | -0.951 |
| HMFPELSEEAKVIVDALSKENDQQLNVLIANTGMAVGTMQAKLFELEMQGVVKPLAGSVYHLM | 0.22 |
| HMFPELTDDEQLIVSTLAKTNDMQINMLAVRTGIPVQRMSALLFSLEMKGVVKMYAGGTYHLL | -0.0499 |
| HMFPNQLLISRLSNQLSASERFAAVSSIAQLKNIDYDVLHVLVHTMNSDPNSNVRLAALEALSR | -0.313 |
| HMFPQQGEIRQGVIASITPDQILVNVGTKSEGIISGKELEAISKSERDSLNVDQKIAVYILDPEDSNG | -0.391 |
| HMFQNPSQVVTTRVGELRAAIPTAQQGRITMGVAVVEDANSVRSVLISTSEPRGYLRPGVTLGPGETMV | 0.106 |
| HMFQPFFENLRKASIPVSLREYLTFLEGMKKGLVTYDIEAFYFLARAAMVKDERNIDKFDRAFSATFKG | 0.0456 |
| HMFQTAADVAYRIISQKILDGEFPPGMKLSRRKMAEVTSVSVIPVIEALKKLEEDGLVESKPQWGSFVTI | -0.246 |
| HMFQYEKIKDYILTGLEEGTWQAGDKIPSEAELVMSLNVSRMTVNRAVRELANSGLLVRIPGAGTFVATE | -0.886 |
| HMFSIDRNIRRLRKEAGLTQEELAQKLFVTRQTISLWELGKVHPDLETLQKLAEQFQVDLLQVLYGPE | -2.41 |
| HMFSLDMDRLVRPGFMASGNVTFSDGVTGKWALDQMGRLALETAQKGYQPSPADVQAFQRELQQQLQRQG | -0.178 |
| HMFSPTKLKEKRESQGLSQSQLASSLGISRASYFNWESGKTKPNQNNLSKLSEILNVDPRYF | 0.0274 |
| HMFSSVSVPAELSNQRFDKVVAELTPDLSRSKIKQLILLGKVLLNGEVTPPKQKVETGDEIEIFYTRQIE | -0.23 |
| HMFTLDIGTIIRNRRLELNLTLEEIGNAVGVSKSTVQKWENGFISNMKRDKISALAKVLNINPVTLITGEY | -0.711 |
| HMFTLNEIIGQKIRNARISAGLTLDELSKMTGISAAQLSSLETGYRRANIDTLYAIAKAIGIDVSNLLKY | -0.626 |

| Sequence | soluble fraction (log2) |
| --- | --- |
| HMFTRFTVAQDGWTIGGFTAKEMAVSTAKQHAVDTGKPVTVVAHVAGGGSREAIFNSDGTNDKIWN | 0.157 |
| HMFTYEETIGKSADVYLTIPALKAGKGKIIISVRGSVHELDAMTNNAEKISTGAVVKIVRIEHGNILLVEN | -0.44 |
| HMFVEKDSIINKGNNSYNFVITDNNNKVLVEYNGLLPDLFKEEQGVVIEGRLKSDFIIHAFTVF | -0.462 |
| HMFVGVDMAVKEEIGKEGVAFTDLRPAGKVSIGDDVYDAVSETGAFITRGTSVRVLKYQAGQVYVVK | 0.354 |
| HMFVTFFHELKSAGVPVSLREYLTLMEAMDRDLASRRVEEFYYLARTALVKDERNLDKFDRVFGHVFKGL | -1.69 |
| HMFWVESDVDFVDKTSAHNAIKENERVIGMYISYRLNGTWTTEQYVGIDTSKDNWENPDNWNIL | -0.381 |
| HMFYLPEPLTEQELRILGMLLDGRSNPEIAAELFIAVGTAKWHVHNILQKLGVANRAQAIVKAHELGLT | -1.88 |
| HMFYNELMNFIVYKDSQKIGKIVNINDKLPQPVFEVLINDKKFMVPIHDDFIEKIDKEKKSIHIVIPDGLL | -1.01 |
| HMFYWTDLIGLDVINTADERLGKVVGLIETGANAVLRVMGDDQVERLLPFGSAVVLTVEKEAGQIRVEW | -2.05 |
| HMGAARVTPLYNLRLREGPSTATARLDVVPRGTTLEVRAWDETGDWAQVEYRGQIGWIAAWLAEVEGEAP | -0.739 |
| HMGADSFTGYTPIHKIDNPSDGINDGASYVVYFQKDGTDPTEFYKAVNANASTLAQLTSGTEYDLASSKKL | -0.722 |
| HMGAEIRDKVRAALAGLNPRAAEIFVMRYFDGYGNREIARLLNTSWSTIAVTLHRTRAKLQKELK | 0.0552 |
| HMGAGDKQAQQASLMQIIALQKEGMALGLVEPKHLYHSFSKMIENAGFKDVQSFAVDPSTQQ | -0.199 |
| HMGAGEQMLPKVMFAEGDRVVHKVFGEGTVVTVDRPAQTYDIQFDKLRGTRRIMFRAELEGI | -0.922 |
| HMGAGLDDLVRKSLHNAGLKADDNVVSWISGNLGSDRMVSRMELEKLVLFVAGQSEITLEDAQAVIGD | -0.374 |
| HMGAGLKIGNDHEYANYLEYKVSVEKYAPGAILGEIKQKGIQFNTTISKTTFYRYITDGVFLTITNADLPV | -0.138 |
| HMGALTGQERRAEIMNILRQSTMPLSGAALGKQLGVSRQVVVQDIALLRQSGEEIYATNRGYVTG | ≥ 0.43 |
| HMGAQPLIEPLSERELEVLALIAEGLTNAEIGRRLFIATGTVKRHVNTIYGKLDVHGRIEAIARARDLHLI | -0.66 |
| HMGAQRDFELQLIDVIRQNPGLTYKAYGEKLSVSQATVKRLVAKLKETGSIRREGSQRKGTWIITDD | 0.252 |
| HMGARWPIQDRPLTATEAAAVRRMYAGGLPHGRSKNSVITEVWGDLSNKPKRLDWLNQALEGGA | 0.357 |
| HMGASGVEVPDVAGMSTAQAVSSLEQKGFVVNRTESYDAGVEKGNVISQSPEGGTKAPNGSAVTIRISQGA | 0.081 |
| HMGASIQITVNNTPVMLKNKTHYTLVDVLDFYPFDLSKMGGTELYTAINGVKSGFTDPVHANDSIEIYWI | 0.196 |
| HMGASSLVGRSARVLQAVTDSDGRIKLAGETWSARLAAGATSTVGPGEEVRVIAIHGATAIVAPV | 0.0834 |
| HMGASVGEVESVKTASEIYTAAAGKIVAVNDAVAKDPSLVNSDPYGNGWLVKLEIADLSAINA | -0.304 |
| HMGAVDIATARQLISEIGLPIMLKAEGGGGGRGIFAIHNEAELEDAFFKASTMAQASFGNPRLFVEKF | -0.985 |
| HMGAVFEFIMEEEEPERIDKLLSSALPDLSRSYLQKLVKEGAVLVNKKEVKPNHKVNPGDVVEISVPEPE | -0.744 |
| HMGAVGISQKVTSLETAVLGKNFAKDPLIDRVARLEQTVLPKQAEANASLSLPERVSKLLEKVPIAAG | 0.136 |
